These results are taken from publication PMC11861921.

Test [1] has as its target rat brain synaptosomes (sites that bind 125I-apamin). Nature of the test: radioligand binding; competition with 125I-apamin on rat brain synaptosomes.
Test [2] deals with rat brain synaptosomes (sites that bind 125I-charybdotoxin). Nature of the test: radioligand binding.
In test [3] the target is human Kv1.3 channel (human) (UniProt P22001).
Sequence of UniProt P22001 (P22001 whole entry): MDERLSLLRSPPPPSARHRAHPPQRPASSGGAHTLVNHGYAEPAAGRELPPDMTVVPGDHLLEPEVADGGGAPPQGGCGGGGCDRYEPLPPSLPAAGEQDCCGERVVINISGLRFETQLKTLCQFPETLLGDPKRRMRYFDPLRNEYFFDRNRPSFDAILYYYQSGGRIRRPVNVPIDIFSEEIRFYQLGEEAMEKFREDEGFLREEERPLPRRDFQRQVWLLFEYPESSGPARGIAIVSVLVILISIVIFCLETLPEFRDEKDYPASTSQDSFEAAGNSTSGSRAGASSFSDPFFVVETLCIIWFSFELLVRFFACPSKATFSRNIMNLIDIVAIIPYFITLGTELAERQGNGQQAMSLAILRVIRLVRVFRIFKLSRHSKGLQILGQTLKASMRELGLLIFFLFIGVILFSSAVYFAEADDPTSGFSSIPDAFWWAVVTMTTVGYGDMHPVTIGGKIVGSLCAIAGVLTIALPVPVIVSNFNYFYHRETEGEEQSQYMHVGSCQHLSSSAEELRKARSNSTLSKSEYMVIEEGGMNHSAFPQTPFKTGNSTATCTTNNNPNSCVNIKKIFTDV

MTX1 (peptide): the values for the 50% inhibitory concentration (IC50) in test [1] and in test [2] were 1.7 nM and 5 nM, respectively.
The substance Tb11a (peptide) yielded a decrease in Kv1.3 maximum current, patch-clamp (voltage clamp, whole-cell configuration) on HEK293T cells in test [3] of 50%.
